Test results published in US20260275312, “CRISPR NUCLEASE POLYPEPTIDES AND GENE EDITING SYSTEMS COMPRISING SUCH” (ARBOR BIOTECHNOLOGIES, INC., published 2026).

Target: T1, Nuclease W S925R/E715R/A65R (synthetic construct, S925R,E715R,A65R)
T1 chain: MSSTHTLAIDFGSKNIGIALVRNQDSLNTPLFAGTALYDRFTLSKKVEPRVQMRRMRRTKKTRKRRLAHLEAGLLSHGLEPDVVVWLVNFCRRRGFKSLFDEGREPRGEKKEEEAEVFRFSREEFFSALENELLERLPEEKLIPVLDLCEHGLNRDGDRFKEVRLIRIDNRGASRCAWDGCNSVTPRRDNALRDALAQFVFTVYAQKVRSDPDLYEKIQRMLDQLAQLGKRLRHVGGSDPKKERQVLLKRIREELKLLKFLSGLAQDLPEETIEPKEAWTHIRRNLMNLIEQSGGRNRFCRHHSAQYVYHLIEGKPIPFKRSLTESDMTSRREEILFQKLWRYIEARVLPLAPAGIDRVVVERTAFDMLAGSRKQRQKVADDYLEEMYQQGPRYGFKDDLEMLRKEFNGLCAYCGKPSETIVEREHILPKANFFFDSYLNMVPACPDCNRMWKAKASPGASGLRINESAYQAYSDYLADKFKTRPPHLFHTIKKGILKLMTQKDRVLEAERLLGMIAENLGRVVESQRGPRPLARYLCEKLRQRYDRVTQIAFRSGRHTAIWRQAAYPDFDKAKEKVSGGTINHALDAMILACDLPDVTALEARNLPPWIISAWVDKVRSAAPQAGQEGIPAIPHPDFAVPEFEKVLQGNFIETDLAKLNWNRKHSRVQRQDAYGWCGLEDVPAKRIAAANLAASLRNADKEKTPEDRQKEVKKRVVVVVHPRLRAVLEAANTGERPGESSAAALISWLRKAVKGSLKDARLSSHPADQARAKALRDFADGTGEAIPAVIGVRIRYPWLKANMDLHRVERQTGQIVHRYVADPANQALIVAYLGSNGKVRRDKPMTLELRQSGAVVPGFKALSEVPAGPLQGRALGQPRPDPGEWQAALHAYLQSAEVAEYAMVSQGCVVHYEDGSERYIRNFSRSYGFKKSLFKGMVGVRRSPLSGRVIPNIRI
Assay: cell_activity; HEK293T; PAM AAA
Conditions: tags: N-term SV40 NLS, XTEN linker + C-term nucleoplasmin NLS
Protocol: Approximately 16 hours prior to transfection, 25,000 HEK293T cells in DMEM/10% FBS+Pen/Strep (D10 media) were plated into each well of a 96-well plate. On the day of transfection, the cells were 50-90% confluent. For each well to be transfected, a mixture of Lipofectamine 2000™ (ThermoFisher Scientific) and Opti-MEM™ (ThermoFisher Scientific) was prepared and incubated at room temperature for 5 minutes (Solution 1). After incubation, the Lipofectamine 2000™:Opti-MEM™ mixture was added to a separate mixture containing the CRISPR nuclease plasmid (NLS-tagged), RNA guide plasmid, and Opti-MEM™ (Solution 2). In the case of negative controls, the CRISPR nuclease plasmid was excluded. Solutions 1 and 2 were mixed by pipetting up and down, then incubated at room temperature for 25 minutes. Following incubation, the Solution 1 and 2 mixture was added dropwise to each well of a 96-well plate containing the cells. […]
Each Nuclease W variant was cloned as described in Example 2. […] For each target, indel ratios, referring to the percentage of NGS reads comprising indels, were calculated for the reference Nuclease W (SEQ ID NO: 1) and for each Nuclease W variant. The indel ratios shown in Table 5 were calculated as the average of two bioreplicates, each of which contained two technical replicates.

B1: W EMX1-T5 RNA guide ; EMX1-T5 target (W) (ssRNA ; dsDNA)
RNA: UAAACUACAGUGGUGCCUGGGUUUCAGCUACCCUGAGUUUCUCAACUCCGUUGAGACUUCCUCAGGUUCAAGCUGAAAAGAGCAUCUGUCCGGAAGGACCACUCCGGGUUAGGGCAGACCCGGCUCUUGGGCUUCCUUGGUCUUUGACUCUGGAGGAAACCUUCCGGCGUGUCGCAAGACAAGAUGUGAGCCUG
DNA 1: TAAACTACAGTGGTGCCTGG
DNA 2: CCAGGCACCACTGTAGTTTA
- binding signal: 4.84 fold indel vs reference
